Results on one substance are retold here after paper PMC7841527.

The target of test [1] is FLAG-tagged HDAC4 p.Thr244Lys variant (human). In words: co-IP; HEK293 cells co-transfected with FLAG-HDAC4 (native or variant) and HA-14-3-3β; ~48 h post-transfection cleared extracts immunoprecipitated with anti-FLAG antibody; western blot with anti-HA; blots quantified with ImageJ relative to HDAC4 and 14-3-3β loading controls. In general terms: Immunoblotting shows a protein as a band on a membrane.

The target in test [2] is FLAG-tagged HDAC4 p.Glu247Gly variant (human). Described as above.
FLAG-tagged HDAC4 p.Glu247Gly variant (human), sequence (P56524 whole entry E247G): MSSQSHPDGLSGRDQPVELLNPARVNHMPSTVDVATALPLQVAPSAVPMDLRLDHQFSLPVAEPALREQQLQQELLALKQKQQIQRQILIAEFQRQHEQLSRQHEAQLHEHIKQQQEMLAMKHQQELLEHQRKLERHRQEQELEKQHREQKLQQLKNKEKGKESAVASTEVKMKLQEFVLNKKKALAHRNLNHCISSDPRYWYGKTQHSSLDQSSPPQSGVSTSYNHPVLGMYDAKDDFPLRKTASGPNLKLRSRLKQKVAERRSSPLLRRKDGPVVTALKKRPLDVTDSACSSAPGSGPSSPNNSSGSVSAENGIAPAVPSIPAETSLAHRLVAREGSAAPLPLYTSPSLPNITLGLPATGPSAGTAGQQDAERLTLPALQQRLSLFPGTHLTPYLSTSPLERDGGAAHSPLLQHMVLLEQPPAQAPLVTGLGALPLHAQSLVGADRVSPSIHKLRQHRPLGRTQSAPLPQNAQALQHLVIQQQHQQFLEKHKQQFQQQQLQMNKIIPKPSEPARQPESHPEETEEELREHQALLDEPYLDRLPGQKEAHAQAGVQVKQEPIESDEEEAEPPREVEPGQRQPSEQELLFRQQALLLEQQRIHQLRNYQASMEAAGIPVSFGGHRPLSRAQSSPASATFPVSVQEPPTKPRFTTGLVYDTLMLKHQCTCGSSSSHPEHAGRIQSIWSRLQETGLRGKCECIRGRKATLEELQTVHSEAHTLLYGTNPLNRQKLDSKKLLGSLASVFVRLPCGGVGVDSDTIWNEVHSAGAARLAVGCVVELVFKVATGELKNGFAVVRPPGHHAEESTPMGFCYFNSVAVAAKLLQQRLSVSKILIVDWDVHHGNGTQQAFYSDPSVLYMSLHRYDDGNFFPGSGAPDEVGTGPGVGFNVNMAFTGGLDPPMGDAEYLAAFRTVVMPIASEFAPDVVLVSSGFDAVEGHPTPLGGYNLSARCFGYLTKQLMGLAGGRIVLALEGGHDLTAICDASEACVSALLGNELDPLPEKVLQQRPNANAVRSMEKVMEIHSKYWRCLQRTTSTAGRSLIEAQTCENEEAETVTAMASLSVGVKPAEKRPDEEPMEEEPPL

FLAG-tagged HDAC4 p.Thr244Lys variant (human), sequence (P56524 whole entry T244K): as the sequence (P56524 whole entry E247G) above, with T244K, G247E counted along it

Turning to “14-3-3β (hemagglutinin [HA]-tagged) (from UniProt P31946 1-246) (natural protein)”, the fold reduction of binding compared to native HDAC4 in test [1] and in test [2] was 2 fold each time.
